This is an account of results in patent US11254722B2, “Recombinant proteins and uses thereof” (ACADEMIA SINICA, priority 2017, dated 2022).

The target in test [1] is T1, nrgECD (amino acids Ser2-Lys246 of neuregulin beta 1) (Homo sapiens, UniProt Q02297).
T1 construct: Ser2-Lys246 of neuregulin beta 1; purchased R&D Sciences or SinoBiologicals
T1 sequence (Q02297 2-246 isoform Q02297-6): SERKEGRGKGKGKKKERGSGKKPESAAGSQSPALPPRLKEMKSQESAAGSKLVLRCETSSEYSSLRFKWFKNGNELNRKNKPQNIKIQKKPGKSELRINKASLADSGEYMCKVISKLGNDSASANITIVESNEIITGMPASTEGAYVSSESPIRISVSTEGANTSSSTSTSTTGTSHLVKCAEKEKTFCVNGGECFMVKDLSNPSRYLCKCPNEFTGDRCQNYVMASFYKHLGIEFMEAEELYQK
As to the kind of experiment: Biacore binding to nrgECD. The conditions noted are these: immobilized nrgECD. The protocol:
(§1) Biacore binding was performed at David Myszka's laboratory at the University of Utah or at the Genomic Research Center at Academia Sinica. Surfaces of binding protein chimera were made via chemical immobilization on a CM4 chip using standard amine coupling chemistry. […] Excess surface carboxyl activated sites on all four flow cells was blocked using the doubly positively charged species ethylenediamine. Binding experiments (but not immobilizations) in HBS-P (10 mM HEPES pH 7.4, 150 mM NaCl, 0.05% P20), The HBS-P was supplemented with BSA at 0.2 mg/mL, or HBS-P was supplemented with 500 mM NaCl (650 mM NaCl, final concentration). Analytes were also reconstituted in the corresponding buffer. All experiments were performed at 25° C. 1/150 dilutions of phosphoric acid were used to regenerate IGFBP3-Fc surfaces and a sequence of 3 M MgCl2 followed by 5 M GuCl was used to regenerate surfaces immobilized with growth factor. Dissociation constants reported below used immobilized binding protein unless noted. Differences between binding constants may be expected between growth factor immobilization and chimera immobilization.
(§2) In this example, erbB4 domain 1 was attached to the N-terminus of the recombinant IGFBP3-Fc or the recombinant IGFBP3-v1v2-Fc.
(In general: SPR reads the build-up and loss of mass on a sensor chip optically.)

For test [2], the target named is T2, nrgEGF (amino acids Thr176-Lys246 of neuregulin-beta 1) (Homo sapiens, UniProt Q02297).
T2 construct: Thr176-Lys246 of neuregulin-beta 1; purchased R&D Sciences or SinoBiologicals
T2 sequence (Q02297 176-246 isoform Q02297-6): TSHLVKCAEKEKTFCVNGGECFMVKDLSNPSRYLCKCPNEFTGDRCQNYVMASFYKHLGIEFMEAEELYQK
As to the kind of experiment: Biacore binding to nrgEGF. The protocol:
as §1, §2

The target in test [3] is T3, EGF (Homo sapiens, UniProt P01133).
T3 construct: purchased R&D Sciences or SinoBiologicals
As to the kind of experiment: Binding to EGF. The source says: Table 3 lists the correlation between the IGFBP3 growth factor binding as determined by the inhibition of the proliferation by 56662. The observed inhibitory effects may derive from the growth factor sequestration, and/or IGFBP3 independent effects.

For test [4], the system named is cancer cells. As to the kind of experiment: In vitro proliferation of cancer cells stimulated by growth factors (Table 8). It counts as cell-based. The protocol:
(§3) For the proliferation assay, cells except for HUVEC were seeded at a density of 1,000 to 6,000 in 96 wells in an assay buffer of DMEM/F12 plus 0.2% BSA and 10 ug/ml transferrin. Chemical inhibitors were added after 16-20 hours after plating; IGF-1 or other growth factors or test chimeras in assay buffer were added at the time of plating or 16-20 hours after plating. 5,000 HUVEC ells were plated in poly-L-lysine coated 96 wells in M199 with 1%/FBS and HEPES. After 3 to 4 days of culture, growth was determined by incubating cells with Alamar blue for 4 to 6 hours and then the fluorescence (RFU) at 544/590 nm was read. For long term proliferation assays, cells were plated in the growth media with 5% or 10% FBS at densities of 500 to 10,000 cells per cm^2 growth area and grown for 7 to 21 days. Inhibitors and effectors were added 1-4 days after plating. Cells were exposed to cisplatin or gemcitabine for two days. Medium was renewed twice weekly. At completion, cells were fixed and then stained with Giemsa.
The BP3-fc construct inhibited the proliferation of cancer cells that had been stimulated by IGF-1, IGF-2, neuregulin, HGF, and bFGF.

For test [5], the target named is T4, VEGF (Homo sapiens, UniProt P15692).
T4 construct: purchased R&D Systems
T4 sequence (P15692 27-191 isoform P15692-4): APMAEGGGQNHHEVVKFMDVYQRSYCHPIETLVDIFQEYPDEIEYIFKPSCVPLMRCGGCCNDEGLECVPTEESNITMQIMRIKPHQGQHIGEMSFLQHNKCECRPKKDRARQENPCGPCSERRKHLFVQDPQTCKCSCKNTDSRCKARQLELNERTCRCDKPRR
Nature of the test: In vitro proliferation stimulated by VEGF (Table 8). It counts as cell-based. The protocol: as §3
(§4) The BP3-VEGF-trap-fc (including the IGFBP3 domains, the VEGFR1 domain 2 and VEGFR2 domain 3 (VEGF-trap (22)), and human immunoglobulin Fc region) broadened the binding to include VEGF-A, VEGF-B, and placental growth factor (PIGF). This BP3-VEGF-trap chimera could inhibit the proliferation stimulated by IGF-1, IGF-2, neuregulin, PDGF-BB, HGF, bFGF, VEGF-A, and PIGF (see, Table 8).

Test [6] relates to hep3B cells. As to the kind of experiment: hep3B proliferation assay. Type of test: cell-based, human. The note with it: hep3B. The gist of the method: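 Cells seeded at 1,000 to 6,000 per well in DMEM/F12 with 0.2% BSA and 10 ug/ml transferrin. Inhibitors added 16-20 h after plating; IGF-1 or other growth factors at plating or 16-20 h later. After 3 to 4 days, growth read by Alamar blue fluorescence at 544/590 nm after 4 to 6 h.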

Test [7] has as its target T5, PIGF (Homo sapiens, UniProt P49763).
T5 construct: purchased R&D Sciences or SinoBiologicals
T5 sequence (P49763 19-221): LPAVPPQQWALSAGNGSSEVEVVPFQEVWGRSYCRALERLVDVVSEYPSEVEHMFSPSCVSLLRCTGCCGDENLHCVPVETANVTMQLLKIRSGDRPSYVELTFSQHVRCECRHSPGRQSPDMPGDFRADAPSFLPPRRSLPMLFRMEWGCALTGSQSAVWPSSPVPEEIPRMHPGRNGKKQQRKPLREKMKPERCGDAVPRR
Nature of the test: In vitro proliferation stimulated by PIGF (Table 8). It counts as cell-based. On the procedure:
as §3, §4

T3 sequence (P01133 971-1023 limits assumed): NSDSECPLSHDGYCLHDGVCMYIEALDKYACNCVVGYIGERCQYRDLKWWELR

The Kd is a measure of binding affinity in units of concentration. Lower therefore signals tighter binding. Take “56662: IGFBP3-Fc, SEQ ID NO: 7; unmodified IGFBP3 fused with the IgG Fc portion [compound 56662]”: the affinity in test [1], expressed as Kd, was 5.3 nM. Besides, the “Kd nrgEGF” value in test [2] is “No binding”. In addition, the “binding to EGF” value in test [3] is on record as “did not bind”. Further, in test [4], the “inhibition of proliferation stimulated by bFGF” value is given as “inh”. Further, in test [5], the “inhibition of proliferation stimulated by VEGF” value is listed as “no”. Further, in test [6] (HGF-induced), the “In vitro inhibition of proliferation, HGF” value is on record as “yes (hep3B, HUVEC)”. Moreover, the EC50 in test [6] (FIG. 11C, read-out: ECK for FBS-induced proliferation) was 201 nM. In addition, the “inhibition of proliferation stimulated by PIGF” value in test [7] is recorded as “no”.
